Drawing on the RNAGym collection of RNA variant scans (doi:10.7554/elife.90254), this text covers self-cleavage for 39 variants.

Sequences and labels used below:
B1: LINE1-full (parent)
chain: UACGUAGGUGGUUUUCCCCUGAUAGUGCUAAGGGGGCCUGGAAGUUUGGACUGGGCAGAGCUCAACACAGCGUGGCAAAGUGGCUGUGGCUAGACUGCCUCUCUGGAUUCCUCGUCACUCAGCAGGGCAUCUCUGAGAGAAAUGCC

Variants of B1 are the subject of this series. Briefly: self-cleavage, relative activity (ratio to wild type); higher = more cleavage; in vitro, sequencing; the parent is a self-cleaving ribozyme.
Turning to UACGUAGGUGGUUUUCCCCUGAUACUGCUAAGGGGGCCUGGAAGUUUGGACUGGGCAGAGCUCAACACAGCGUGGCAAAGUGGCUGUGGCUAGACUGCCUCUCUGGAUUCCUCGACACUCAGCAGGGCAUCUCUGAGAGAAAUGCC [G25C U115A], the self-cleavage is 1.02. Then UACGUAGGUGGUUUUCCCCUGAUAAUGCUAAGGGGGCCUGGAAGUUUGGACUGGGCAGAGCUCAACACAGCGUGGCAAAGUGGCUGUGGCUAGACUGCCUCUCUGGAUUCCUCGUCACUCAGCAGGGCAUCUCUGAGAGAAAUGCC [G25A], with 1.21. As to UACGUAGGUGGUUUUCCCCUGAUACUGCUAAGGGGGCCUGGAAGUUUGGACUGGGCAGAGCUCAACACAGCGUGGCAAAGUGGCUGUGGCUAGACUGCCUCUCUGGAUUCCUCGUCACUCAGCAGGGCAUCUCUGAGAGAAAUGCC [G25C], the self-cleavage was 1.4.

UACGUAGGUGGUUUUCCCCUGAUAUUGCUAAGGGGGCCUGGAAGUUUGGACUGGGCAGAGCUCAACACAGCGUGGCAAAGUGGCUGUGGCUAGACUGCCUCUCUGGAUUCCUCGUCACUCAGCAGGGCAUCUCUGAGAGAAAUGCC [G25U]: the self-cleavage was determined as 1.45. Then UACGUAGGUGGUUUUCCCCUGAUAUUGCUAAGGGGGCCUGGAAGUUUGGACUGGGCAGAGCUCAACACAGCGUGGCAAAGUGGCUGUGGCUAGACUGCCUCUCUGGAUUCCUCAUCACUCAGCAGGGCAUCUCUGAGAGAAAUGCC [G25U G114A], with 1.13; and UACGUAGGUGGUUUUCCCCUGAUAAUGCUAAGGGGGCCUGGAAGUUUGGACUGGGCAGAGCUCAACACAGCGUGGCAAAGCGGCUGUGGCUAGACUGCCUCUCUGGAUUCCUCGUCACUCAGCAGGGCAUCUCUGAGAGAAAUGCC [G25A U81C], with 1.91; and UACGUAGGUGGUUUUCCCCUGAUUGUGCUAAGGGGGCCUGGAAGUUUGGACUGGGCAGAGCUCAACACAGCGUGGCAAAGUGGCUGUGGCUAGACUGCCUCUCUGGAUUCCUCGUCACUCAGCAGGGCAUCUCUGAGAGAAACGCC [A24U U143C], with 1.63.

As to UACGUAGGUGGUUUUCCCCUGAUAAUGCUUAGGGGGCCUGGAAGUUUGGACUGGGCAGAGCUCAACACAGCGUGGCAAAGUGGCUGUGGCUAGACUGCCUCUCUGGAUUCCUCGUCACUCAGCAGGGCAUCUCUGAGAGAAAUGCC [G25A A30U], the self-cleavage came out at 0.7. To UACGUAGGUGGUUUUCCCCUGAUAAUGCUAAGGGGGCCUGGAAGUUUGGACUGGGCAGAGCUCAACACAGCGUGGCAAAGUGGCUGUGGCUAGACUGCCUCUCUGGAUUCCUCGUCACUCAGCAGGGCAUCUCUGAGAGAGAUGCC [G25A A141G] belongs 0.96; to UACGUAGGUGGUUUUCCCCUGAUAAUGCUAAGGGGGCCUGGAAGUUUGGACUGGGCAGAGCUCAACACAGCGUGGCAAGGUGGCUGUGGCUAGACUGCCUCUCUGGAUUCCUCGUCACUCAGCAGGGCAUCUCUGAGAGAAAUGCC [G25A A79G], 0.91; to UACGUAGGUGGUUUUCCCCUGAUAAUGCUAAGGGGGCCUGGAAGUUUGGACUGGGCAGAGCUCAACACAGCGUGGCAAAGUGGCUGCGGCUAGACUGCCUCUCUGGAUUCCUCGUCACUCAGCAGGGCAUCUCUGAGAGAAAUGCC [G25A U87C], 0.22. To UACGUAGGUGGUUUUCCCCUGAUAAUGCUAAGGGGGCCUGGAAGUUUGGACUGGGCAGAGCUCAACACAGCGUGGCAAAGUGGCUGUGGCUAGACUGCCUCUCUGGAUUCCUCGUCACUCAGCAGGGCAUCUCUGAGAGGAAUGCC [G25A A140G] belongs 1.49; to UACGUAGGUGGUUUUCCCCUGAUAAUGCUAAGGGGGCCUGGAAGUUUGGACUGGGCAGAGCUCAACACAGCGUGGCAAAGUGGCUGUGGCUAGACUGCCUCUCUGGAUUCCUCGACACUCAGCAGGGCAUCUCUGAGAGAAAUGCC [G25A U115A], 1.05; to UACGUAGGUGGUUUUCCCCUGAUAUUGCUAAGGGGGCCUGGGAGUUUGGACUGGGCAGAGCUCAACACAGCGUGGCAAAGUGGCUGUGGCUAGACUGCCUCUCUGGAUUCCUCGUCACUCAGCAGGGCAUCUCUGAGAGAAAUGCC [G25U A42G], 1.04.

UACGUAGGUGGUUUUCCCCUGAUAAUGCUAAGGGGGCCUGGAAGUUUGGACUGUGCAGAGCUCAACACAGCGUGGCAAAGUGGCUGUGGCUAGACUGCCUCUCUGGAUUCCUCGUCACUCAGCAGGGCAUCUCUGAGAGAAAUGCC [G25A G54U]: the self-cleavage turned out to be 0.45. Then UACGUAGGUGGUUUUCCCCUGAUAUUGCUAAGGGGGCCUGGAAGUUUGGACUGGGCAGAGCUCAACACAGCGUGGCAGAGUGGCUGUGGCUAGACUGCCUCUCUGGAUUCCUCGUCACUCAGCAGGGCAUCUCUGAGAGAAAUGCC [G25U A78G], with 0.96; and UACGUAGGUGGUUUUCCCCUGAUACUGCUAAGGGGGCCUGGAAGUUUGGACUGGGCAGAGCUCAACACAGCGUGGCAAAGUGGCUGUGGCUAGACUGCCUCUCAGGAUUCCUCGUCACUCAGCAGGGCAUCUCUGAGAGAAAUGCC [G25C U104A], with 1.91. With UACGUAGGUGGUUUUCCCCUGAUAUUGCUGAGGGGGCCUGGAAGUUUGGACUGGGCAGAGCUCAACACAGCGUGGCAAAGUGGCUGUGGCUAGACUGCCUCUCUGGAUUCCUCGUCACUCAGCAGGGCAUCUCUGAGAGAAAUGCC [G25U A30G], the self-cleavage was 1.27.

On to UACGUAGGUGGUUUUCCCCUGAUAUUGCUAAGGGGGCCUGGAAGUUUGGACUGGGCAGAGCUCAACACAGCGUGGCAAAGUGGCUGUGGCUAGACUGCCUCUCUGGAUUCCUCGUCACUCAGCAGGGCAUCUCUGAGAGGAAUGCC [G25U A140G], for which the self-cleavage came out at 0.7. Then UACGUAGGUGGUUUUCCCCUGAUAAUGCUAAGGGGGCCUGGAAGUUUGGACUGGGCAGAGCUCAACACAGCGUGGUAAAGUGGCUGUGGCUAGACUGCCUCUCUGGAUUCCUCGUCACUCAGCAGGGCAUCUCUGAGAGAAAUGCC [G25A C76U], with 1.35. To UACGUAGGUGGUUUUCCCCUGAUACUGCUAAGGGGGCCUGGAAGUUUGGACUGGGCAGAGCUCAACACAGCGUGGCAAAGUGGCUGUGGCUAGACUGCCUCUCUGGAUUCCUCGUCACUCAGCAGGGCAUCUCUGAGAGGAAUGCC [G25C A140G] belongs 2.41; to UACGUAGGUGGUUUUCCCCUGAUAAUGCUAAGGGGGCUUGGAAGUUUGGACUGGGCAGAGCUCAACACAGCGUGGCAAAGUGGCUGUGGCUAGACUGCCUCUCUGGAUUCCUCGUCACUCAGCAGGGCAUCUCUGAGAGAAAUGCC [G25A C38U], 0.64; to UACGUAGGUGGUUUUCCCCUGAUACUGCUAAGGGGGCCUGGAAGUUUGGACUGGGCAGAGCUCAACACAGCGUGGCAAAGUGGCUGUGGCUAGACUGGCUCUCUGGAUUCCUCGUCACUCAGCAGGGCAUCUCUGAGAGAAAUGCC [G25C C98G], 0.25.

Regarding UACGUAGGUGGUUUUCCCCUGAUAAUGCUAAGGGGGCCUGGAAGUUUGGACUGGGCAGAGCUCAACACAGCGUGGCAAAGUGGCUGUGGCUAGACUGCCCCUCUGGAUUCCUCGUCACUCAGCAGGGCAUCUCUGAGAGAAAUGCC [G25A U100C], the self-cleavage was 1.81. UACGUAGGUGGUUUUCCCCUGAUAUUGCUAAGGGGGCCUGGAAGUUUGGACUGGGCAGGGCUCAACACAGCGUGGCAAAGUGGCUGUGGCUAGACUGCCUCUCUGGAUUCCUCGUCACUCAGCAGGGCAUCUCUGAGAGAAAUGCC [G25U A59G]: the self-cleavage was found to be 0.18. Then UACGUAGGUGGUUUUCCCCUGAUAUUGCUAAGGGGGCCUGGAAGUUUGGACUGGGCAGAGCUCAACACAGCGUGGCAAGGUGGCUGUGGCUAGACUGCCUCUCUGGAUUCCUCGUCACUCAGCAGGGCAUCUCUGAGAGAAAUGCC [G25U A79G], with 0.77; and UACGUAGGUGGUUUUCCCCUGAUACUGCUAAGGGGGCCUGGAAGUUUGGACUGGGCAGAGCUCAACACGGCGUGGCAAAGUGGCUGUGGCUAGACUGCCUCUCUGGAUUCCUCGUCACUCAGCAGGGCAUCUCUGAGAGAAAUGCC [G25C A69G], with 0.14. To UACGUAGGUGGUUUUCCCCUGAUAAUGCUAAGGGGGCCUGGAAGUUUGGACUGGGCAGAGCUCAACACGGCGUGGCAAAGUGGCUGUGGCUAGACUGCCUCUCUGGAUUCCUCGUCACUCAGCAGGGCAUCUCUGAGAGAAAUGCC [G25A A69G] belongs 0.41; to UACGUAGGUGGUUUUCCCCUGAUAAUGCUAAGGGGGCCUGGAAGUUUGGACUGGGCAGAGCUCACCACAGCGUGGCAAAGUGGCUGUGGCUAGACUGCCUCUCUGGAUUCCUCGUCACUCAGCAGGGCAUCUCUGAGAGAAAUGCC [G25A A65C], 0.02; to UACGUAGGUGGUUUUCCCCUGAUAAAGCUAAGGGGGCCUGGAAGUUUGGACUGGGCAGAGCUCAACACAGCGUGGCAAAGUGGCUGUGGCUAGACUGCCUCUCUGGAUUCCUCGUCACUCAGCAGGGCAUCUCUGAGAGAAAUGCC [G25A U26A], 1.07. To UACGUAGGUGGUUUUCCCCUGAUAAUGCUAAGGGGGCCUGGAAGUUUGGACUGGGCAGAGCUCAACACAGCGUGGCAAAGUGGCUGUGGCUAGACUGCCUCUCUAGAUUCCUCGUCACUCAGCAGGGCAUCUCUGAGAGAAAUGCC [G25A G105A] belongs 1.27. Consider UACGUAGGUGGUUUUCCCCUGAUACUGCUAAGGGGGCCUGGAAGUUUGGACUGGGCAGAGCUCAACACAGCGUGGCAAAGUGGCUGUGGCUAGACUGCCUCUCUGGAUUCCUCGUUACUCAGCAGGGCAUCUCUGAGAGAAAUGCC [G25C C116U], for which the self-cleavage amounted to 1.52. To UACGUAGGUGGUUUUCCCCUGAUUGUGCUAAGGGGGCCUGGAAGUUUGGACUGGGCAGAGCUCAACACAGCGUGGCAAAGUGGCUGUGGCUAGACUGCCUCUCUGGAUUCCUCGUCACACAGCAGGGCAUCUCUGAGAGAAAUGCC [A24U U119A] belongs 1.09; to UACGUAGGUGGUUUUCCCCUGAUAAUGCUAAGGGGGCCUGGAAGUUUGGACUGGGCAGAGCUCAACACAGCGUGGCAAAGUGGCUGUGGCUAGACUGCCUCUCUGGAUUCCUCGUCACUCAGCAGGGCAUCUCUGAGAGAAGUGCC [G25A A142G], 1.35; to UACGUAGGUGGUUUUCCCCUGAUUGUGCUAAGGGGGCCUGGAAGUUUGGACUGGGCAGAGCUCAACACAGCGUGGCAAAGUGGCUGUGGCUAGACUGCCUCUCUGGAUUCCUCGUCACUCAGCAGGGCACCUCUGAGAGAAAUGCC [A24U U130C], 1.35.

For the variant UACGUAGGUGGUUUUCCCCUGAUAUUGCUAAGGGGGCCUGGAAGUUUGGACUGGGCAGAGCUCAACACAGCGUGGCAAAGUGGCUGUGGCUAGACUGCCUCUCUGGAUUCCUCGUCACUCAGAAGGGCAUCUCUGAGAGAAAUGCC [G25U C123A], the self-cleavage is 0.95. In the case of UACGUAGGUGGUUUUCCCCUGAUAAUGCUAAGGGGGCCUGGAAGUUUGGACUGGGCAGAGCUCAACACAGCGUGGCGAAGUGGCUGUGGCUAGACUGCCUCUCUGGAUUCCUCGUCACUCAGCAGGGCAUCUCUGAGAGAAAUGCC [G25A A77G], the self-cleavage came to 0.92. Then UACGUAGGUGGUUUUCCCCUGAUAAUGCUAAGGGGGCCUGGAAGUUUGGACUGGGCAGAGCCCAACACAGCGUGGCAAAGUGGCUGUGGCUAGACUGCCUCUCUGGAUUCCUCGUCACUCAGCAGGGCAUCUCUGAGAGAAAUGCC [G25A U62C], with 0.11; and UACGUAGGUGGUUUUCCCCUGAUAAUGCUAAGGGGGCCUGGAAGUUUGGACUGGGCAGAGCUCAACACAGCGUGGCAAAGUGGCUGUGGCUAGACCGCCUCUCUGGAUUCCUCGUCACUCAGCAGGGCAUCUCUGAGAGAAAUGCC [G25A U96C], with 0.
